From the supplement of paper PMC7125110
± gives the standard error. Fewer inactive variants are shown than the library holds.

B1: glmS ribozyme (parent)
chain: AUAAAAGCGCCAGAACUACAGAAAUGUAGUUGACGAGGAGGAGGUUUAUCGAAUUUUCGGCGGAUGCCUCCAAA

Experiments:
Settings in all cases: with glucosamine-6-phosphate
[1] = variants of: B1; assay: self-cleavage kobs at 640 uM GlcN6P; higher = faster cleavage; RNA array
In short: (§1)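 Glucosamine-6-phosphate in HEPES/KCl/Mg(OAc)2 buffer, at 40 μM to 10 mM, was flowed over barcoded ribozyme variants transcribed in situ by E. coli RNA polymerase on sequenced MiSeq chips. Tracking was through a hybridised Cy3 probe at 37 °C. kobs, kcat and KM came from exponential decay fits and weighted Michaelis–Menten fits of normalised per-tile medians.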

[2] = variants of: B1; assay: self-cleavage kobs at 2500 uM GlcN6P; higher = faster cleavage; RNA array
In short: as §1

[3] = variants of: B1; assay: self-cleavage kobs at 10000 uM GlcN6P; higher = faster cleavage; RNA array
In short: as §1

Row | Variant | self-cleavage kobs at 640 uM GlcN6P [1] [s⁻¹] | self-cleavage kobs at 2500 uM GlcN6P [2] [s⁻¹] | self-cleavage kobs at 10000 uM GlcN6P [3] [s⁻¹]
1 | G35C A36U G38A | < 1e-05 |  | 
2 | G38A G41C U54G C61A | < 1e-05 | < 1e-05 | 
3 | G35C A52U C67U C68A | < 1e-05 |  | 
4 | G32U A36U G62U | < 1e-05 |  | 
5 | G38A G44U C50A | < 1e-05 |  | 
6 | U31C G38U G41U G63C | < 1e-05 |  | 
7 | U31C A53U C67U | 0.000239 ± 6.6e-05 | 0.00045 ± 9.3e-05 | 
8 | U30A G37A U56A | 5.62e-05 ± 1.7e-05 |  | 
9 | C34U A64U G66C | < 1e-05 |  | 
10 | A36C A42G G43A C67G | < 1e-05 |  | 
11 | C34A G38U U54A | < 1e-05 | < 1e-05 | 
12 | G37C G40C U49A | < 1e-05 | < 1e-05 | 
13 | C34U U57A | < 1e-05 | < 1e-05 | 
14 | G32A G40U A48U | < 1e-05 |  | 
15 | U31G G37C U45G C70U | < 1e-05 | < 1e-05 | 
16 | G38C U45A C70G | < 1e-05 |  | < 1e-05
17 | G32A G51U A52U G60C G62C | < 1e-05 |  | 
18 | U31C G37A | 0.000113 ± 2.3e-05 | 0.000119 ± 1.8e-05 | 0.000359 ± 3.4e-05
19 | G38A C61A G62C | < 1e-05 | < 1e-05 | < 1e-05
20 | A36G G51C C71G | < 1e-05 | < 1e-05 | 
21 | A33U G43A A48U C61U C70U | < 1e-05 | < 1e-05 | 
22 | G38C G43U A64C | < 1e-05 | < 1e-05 | 

Row | Variant | self-cleavage kobs at 640 uM GlcN6P [1] [s⁻¹] | self-cleavage kobs at 2500 uM GlcN6P [2] [s⁻¹] | self-cleavage kobs at 10000 uM GlcN6P [3] [s⁻¹]
23 | G35A A39G C61U | < 1e-05 | < 1e-05 | 
24 | U31G G38U A53G C68A C71A | 0.000204 ± 7.6e-05 |  | 
25 | U30G A39U U65C | 0.000103 ± 3.8e-05 |  | 0.000419 ± 6.3e-05
26 | G38C U56G C58U | < 1e-05 |  | 
27 | G32A U54A C68A | 0.000374 ± 0.00012 | 0.000108 ± 4.1e-05 | 
28 | A33U U57A C58U C70A C71G | 9.76e-05 ± 2.5e-05 |  | 
29 | C34A U46C A53G G60C C61A | < 1e-05 | < 1e-05 | 
30 | U31A A36C G37U U49C | < 1e-05 |  | 
31 | G32C G35A A64C C70A | < 1e-05 | < 1e-05 | 
32 | U31C A39C G51C | < 1e-05 |  | 
33 | A36C U46G U54A U55G | < 1e-05 |  | 
34 | G37U A42C U56G | < 1e-05 |  | 
35 | G35U U57A | < 1e-05 |  | < 1e-05
36 | G38U A64U C70G | 8.06e-05 ± 3.4e-05 |  | 
37 | U30C G37U G44C C58U C67U | < 1e-05 |  | 
38 | A33C A42U C67A | < 1e-05 |  | 
39 | A36U A52U | < 1e-05 | < 1e-05 | 
40 | A36U G41U U55A | < 1e-05 | < 1e-05 | 
41 | U31G G41U U47G | 7.13e-05 ± 2e-05 | 0.000232 ± 5.7e-05 | 
42 | U30G C34A C68A | < 1e-05 |  | 
43 | G38U G43U U46A A48U C61A C67G | < 1e-05 |  | 
44 | G35C G40A U46G G66A | < 1e-05 | < 1e-05 | 

Row | Variant | self-cleavage kobs at 640 uM GlcN6P [1] [s⁻¹] | self-cleavage kobs at 2500 uM GlcN6P [2] [s⁻¹] | self-cleavage kobs at 10000 uM GlcN6P [3] [s⁻¹]
45 | A36C U49C | < 1e-05 |  | < 1e-05
46 | G32A A53C C58U C71A | < 1e-05 |  | 
47 | C34G A42C A52U C58U U65G | < 1e-05 | < 1e-05 | 
48 | U30A G40U G63A A64G | < 1e-05 |  | 
49 | U31C A42G G66A | 0.000315 ± 9.6e-05 | 0.00117 ± 0.00033 | 
50 | A39C G43A G66A | < 1e-05 |  | 
51 | U31G G37C G38C | < 1e-05 | < 1e-05 | 
52 | A36U C50G G66U | 0.00107 ± 0.0003 |  | 
53 | G37C G59C | < 1e-05 | < 1e-05 | < 1e-05
54 | G32C G41A U46G C71U | < 1e-05 | < 1e-05 | 
55 | C34U A48U A64U | < 1e-05 | < 1e-05 | 
56 | U30G G37A | 9.32e-05 ± 2.2e-05 | 0.000172 ± 4.2e-05 | 0.000734 ± 0.00011
57 | U30A C34U G41C G51A | < 1e-05 |  | 
58 | A39C C58G G63U U65A C71G | < 1e-05 | < 1e-05 | < 1e-05
59 | U31G G62A | < 1e-05 |  | 
60 | G38C G40U U46A | < 1e-05 |  | 
61 | A33G C34U G40A A42U C68A | < 1e-05 | < 1e-05 | 
62 | A33U C34U C70G | 0.00168 ± 0.00079 |  | 
63 | A33C A48C | < 1e-05 | < 1e-05 | 
64 | U31A G43C U45G A52U C70U | < 1e-05 |  | 
65 | C34G U45A U57C | < 1e-05 |  | 
66 | G32U U55A C71A | 9.04e-05 ± 2.8e-05 | 8.28e-05 ± 3.5e-05 | 
